Source: patent publication US20140105889A1 (published 2014)
Residue numbers refer to the chain shown, from its start. In names and notes the source's numbering stands. Each block holds one binder with its values, some of them ahead of it.

Experiments:
[1] = molecular target: T1, mouse FcγRIV (mouse); assay: SPR (Biacore), antibody captured on Protein L, mouse FcγR as analyte, pH 7.4, 25 C
T1 construct: Bought soluble receptor; also called mFcgRIV; mFcgR IV

[2] = molecular target: T2, human FcRn (soluble human FcRn complexed with beta2-microglobulin) (human, UniProt P61769 21-119); assay: Biacore SPR, antibody captured on Protein L, human FcRn analyte, pH 7.0
T2 construct: Soluble human FcRn complexed with beta2-microglobulin; also called hFcRn

[3] = molecular target: T2, human FcRn (soluble human FcRn …); assay: as above; remark: listed apart in the source
[4] = molecular target: T2, human FcRn (soluble human FcRn …); assay: as above; remark: listed apart in the source
[5] = molecular target: T3, human FcRn (soluble human FcRn complexed with beta2-microglobulin) (human, UniProt P61769 21-119); assay: SPR (Biacore), pH 7.0, 25 C, antibody captured by Protein L, human FcRn as analyte
T3 construct: also called hFcRn

[6] = molecular target: T2, human FcRn (soluble human FcRn …); assay: Biacore SPR, antibody captured on Protein L, human FcRn analyte, pH 7.0; remark: listed apart in the source
[7] = molecular target: T4, human FcγRIIa type R (human, UniProt P12318 36-217); assay: SPR (Biacore), captured antibody, FcγR as analyte, 25 C
T4 construct: also called FcγRIIaR; FcγRIIa(R)
T4 chain: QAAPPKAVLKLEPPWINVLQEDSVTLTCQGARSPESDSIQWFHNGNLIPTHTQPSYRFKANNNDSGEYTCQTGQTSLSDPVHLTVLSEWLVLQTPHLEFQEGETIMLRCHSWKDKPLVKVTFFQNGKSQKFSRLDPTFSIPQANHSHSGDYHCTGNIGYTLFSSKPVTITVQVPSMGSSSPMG

[8] = molecular target: T5, human FcγRIIb (human, UniProt P31994 43-217, limits assumed); assay: ratio of this variant's SPR KD for FcγRIIaH to its KD for FcγRIIb
T5 construct: also called FcγIIB; hFcgRIIb
T5 sequence: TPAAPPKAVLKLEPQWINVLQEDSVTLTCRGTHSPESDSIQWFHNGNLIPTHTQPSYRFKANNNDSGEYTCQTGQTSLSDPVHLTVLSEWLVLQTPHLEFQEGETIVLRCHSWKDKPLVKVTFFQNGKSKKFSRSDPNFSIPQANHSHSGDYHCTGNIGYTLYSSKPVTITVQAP

[9] = molecular target: T5, human FcγRIIb; assay: ratio of this variant's SPR KD for FcγRIIaR to its KD for FcγRIIb
[10] = molecular target: T6, FcγRIIb (human, UniProt P31994 43-217, limits assumed); assay: SPR (Biacore); ratio against the parent IL6R-B3/IL6R-L
T6 construct: Soluble analyte in Biacore; also called FcgRIIb; FcγIIB
T6 sequence: T5 sequence

[11] = molecular target: T7, FcγRIIa type H (human, UniProt P12318 36-217); assay: SPR (Biacore), antibody captured on chip, FcγR as analyte, method of Example 14
T7 construct: Soluble analyte in Biacore; also called FcγRIIaH; FcγRIIa(H)
T7 sequence: T4 chain with R133H

[12] = molecular target: T6, FcγRIIb; assay: as above
[13] = molecular target: T8, FcγRIIIa type V (human, UniProt P08637 17-208, limits assumed); assay: as above
T8 construct: Soluble analyte in Biacore; also called FcγRIIIaV; FcγRIIIa(V)
T8 sequence (P08637 other isoform, or with tags, fused parts or gaps limits assumed): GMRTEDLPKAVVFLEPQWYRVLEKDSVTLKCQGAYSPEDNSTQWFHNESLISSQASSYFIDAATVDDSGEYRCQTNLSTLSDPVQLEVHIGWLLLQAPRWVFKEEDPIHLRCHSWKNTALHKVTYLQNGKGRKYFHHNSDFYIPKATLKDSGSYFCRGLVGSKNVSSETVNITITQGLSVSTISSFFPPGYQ

[14] = molecular target: T5, human FcγRIIb; assay: SPR KD for FcγRIIb of parent IL6R-B3/IL6R-L divided by that of this variant

T1 sequence (A0A0B4J1G0 21-203): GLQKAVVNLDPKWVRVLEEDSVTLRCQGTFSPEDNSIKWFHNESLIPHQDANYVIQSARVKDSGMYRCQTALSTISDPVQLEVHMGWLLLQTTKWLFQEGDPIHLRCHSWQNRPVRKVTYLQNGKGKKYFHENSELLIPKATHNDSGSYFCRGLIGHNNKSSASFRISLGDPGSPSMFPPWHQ

- BINDING AMOUNT (RU) [1]: 138 RU
B1: antibody with VH3-IgG1-F424 heavy chain and L(WT)-CK light chain (antibody)
heavy: QVQLQESGPGLVKPSETLSLTCAVSGHSISHDHAWSWVRQPPGEGLEWIGFISYSGITNYNPSLQGRVTISRDNSKNTLYLQMNSLRAEDTAVYYCARSLARTTAMDYWGEGTLVTVSSASTKGPSVFPLAPSSKSTSGGTAALGCLVKDYFPEPVTVSWNSGALTSGVHTFPAVLQSSGLYSLSSVVTVPSSSLGTQTYICNVNHKPSNTKVDKKVEPKSCDKTHTCPPCPAPELLGGPKVFLFPPKPKDTLMISRTAEVTCVVVDVSHEDPEVKFNWYVDGVEVHNAKTKPREEQYNSTYRVVSVLTPLHQDWLNGKEYKCKVSNKALPAPIEKTISKAKGQPREPQVYTLPPSRDELTKNQVSLTCLVKGFYPSDIAVEWESNGQPENNYKTTPPVLDSDGSFFLYSKLTVDKSRWQQGNVFSCSVLHEALHYHYTQKSLSLSP
light: not shown
notes: copies: 2 + 2

- Kd [3]: 0.16 µM
B3: IgG1-F419 (antibody, name in EU numbering)
heavy: B1 heavy with K241S, M254Y, A259P, T309A, P310V, Q313H, K362H, L430M
light: not shown
notes: Fc variant of VH3-IgG1; copies: 2 + 2

- Kd [5]: 0.012 µM
B5: IgG1-F941 (antibody, name in EU numbering)
heavy: B1 heavy with K241S, M254Y, A259P, N288E, T309Q, P310V, Q313A, L430M, Y438V
light: not shown

- Kd [5]: 0.32 µM
B7: IgG1-F936 (antibody, name in EU numbering)
heavy: B1 heavy with G239R, P240D, K241S, T252V, M254Y, A259P, P310V, L430M
light: not shown

- Kd [6]: 0.0044 µM
B8: IgG1-F398 (antibody, name in EU numbering)
heavy: B1 heavy with M254Y, A259P, D272F, N288E, T309Q, Q313A, L430I
light: not shown
notes: as for B3

- Kd [3]: 0.02 µM
B9: IgG1-F434 (antibody, name in EU numbering)
heavy: B1 heavy with K241S, A259V, T309Q, P310V, Q313A, N327G, L430Y
light: not shown
notes: as for B3

- Kd [6]: 0.087 µM
B10: IgG1-F382 (antibody, name in EU numbering)
heavy: B1 heavy with K241S, A259V, V307A, T309A, P310V
light: not shown
notes: as for B3

- Kd [3]: 0.13 µM
B15: IgG1-F421 (antibody, name in EU numbering)
heavy: B1 heavy with K241S, M254Y, A259P, T309A, P310V, Q313H, L430A
light: not shown
notes: as for B3

- Kd [5]: 0.029 µM
B16: IgG1-F928 (antibody, name in EU numbering)
heavy: B1 heavy with K241S, M254Y, A259P, T309Q, P310V, Q313A, L430M, Y438I
light: not shown

- Kd [6]: 0.012 µM
B17: IgG1-F393 (antibody, name in EU numbering)
heavy: B1 heavy with M254Y, A259P, N288E, L430M
light: not shown
notes: as for B3

- Kd [5]: 0.33 µM
B18: IgG1-F919 (antibody, name in EU numbering)
heavy: B1 heavy with K241S, M254Y, A259P, D282G, P310V, N386A, N391A, L430M
light: not shown

The remaining lines, values behind:

B2: IgG1-F329 (antibody, name in EU numbering)
heavy: B1 heavy with M254Y, A259P, D272F, N288E, L430M
light: not shown
notes: as for B3
- Kd [2]: 0.012 µM

B4: IgG1-F281 (antibody, name in EU numbering)
heavy: B1 heavy with K241S, M254Y, A259P, E384A, L430F
light: not shown
notes: as for B3
- Kd [4]: 0.092 µM

B6: IgG1-F273 (antibody, name in EU numbering)
heavy: B1 heavy with K241S, M254Y, A259P, P310V, E384A, L430F
light: not shown
notes: as for B3
- Kd [4]: 0.65 µM

B11: IgG1-F357 (antibody, name in EU numbering)
heavy: B1 heavy with M254Y, T258E, A259P, D272F, N327G, L430I
light: not shown
notes: as for B3
- Kd [2]: 0.016 µM

B12: IgG1-F327 (antibody, name in EU numbering)
heavy: B1 heavy with M254Y, T258E, A259P, D272F, T309Q, P310V, Q313A, L430M
light: not shown
notes: as for B3
- Kd [2]: 0.065 µM

B13: IgG1-F271 (antibody, name in EU numbering)
heavy: B1 heavy with K241S, M254Y, A259P, P310V, D378A, L430F
light: not shown
notes: as for B3
- Kd [4]: 0.69 µM

B14: IgG1-F276 (antibody, name in EU numbering)
heavy: B1 heavy with K241S, M254Y, A259P, D272F, E384A, L430M
light: not shown
notes: as for B3
- Kd [4]: 0.041 µM

B19: IL6R-BF648/IL6R-L (antibody, human IgG1)
heavy: not shown
light: DIQMTQSPSSLSASVGDRVTITCRASQDISSYLNWYQQKPGKAPKLLIYYTSRLHSGVPSRFSGSGSGTDFTFTISSLQPEDIATYYCQQGNTLPYTFGQGTKVEIK
notes: IL6R-B3 with P238D; copies: 2 + 2
- Kd [7]: 1.5 µM
- KD (IIaH)/KD (IIb) [8]: 33.9
- KD (IIaR)/KD (IIb) [9]: 13

B20: IL6R-BP212/IL6R-L (antibody, human IgG1)
heavy: QVQLQESGPGLVKPSETLSLTCAVSGHSISHDHAWSWVRQPPGEGLEWIGFISYSGITNYNPSLQGRVTISRDNSKNTLYLQMNSLRAEDTAVYYCARSLARTTAMDYWGEGTLVTVSSASTKGPSVFPLAPSSKSTSGGTAALGCLVKDYFPEPVTVSWNSGALTSGVHTFPAVLQSSGLYSLSSVVTVPSSSLGTQTYICNVNHKPSNTKVDKKVEPKSCDKTHTCPPCPAPDLLGGDSVFLFPPKPKDTLMISRTPEVTCVVVDVSDEDGEVKFNWYVDGVEVHNAKTKPREEQDNSTYRVVSVLTVLHQDWLNGKEYKCKVSNKALPRPIEKTISKAKGQPREPQVYTLPPSRDELTKNQVSLTCLVKGFYPSDIAVEWESNGQPENNYKTTPPVLDSDGSFFLYSKLTVDKSRWQQGNVFSCSVMHEALHNHYTQESLSLSP
light: B19 light
notes: Anti-human IL-6 receptor IgG1 Fc variant
- KD(IIb) of the parent polypeptide/KD(IIb) of the altered polypeptide [10]: 16.7 fold
- Kd [11]: 2.2 µM

B21: IL6R-BP213/IL6R-L (antibody, human IgG1)
heavy: B20 heavy with D298Y
light: B19 light
notes: as for B20
- KD(IIb) of the parent polypeptide/KD(IIb) of the altered polypeptide [10]: 17.5 fold
- Kd [12]: 0.16 µM
- Kd [13]: 63 µM

B22: IL6R-BP082/IL6R-L (antibody, human IgG1)
heavy: B20 heavy with D270H, G273P, D298Y, R332K
light: B19 light
notes: copies: 2 + 2
- Kd [7]: 1.2 µM
- KD (IIaH)/KD (IIb) [8]: 69
- KD (IIaR)/KD (IIb) [9]: 22.5
- KD(IIb) of the parent polypeptide/KD(IIb) of the altered polypeptide [14]: 5.6

B23: IL6R-BP208/IL6R-L (antibody, human IgG1)
heavy: B20 heavy with G239D, D298Y
light: B19 light
notes: as for B20
- Kd [11]: 8.3 µM
- Kd [13]: 55 µM

B24: IL6R-BP209/IL6R-L (antibody, human IgG1)
heavy: B20 heavy with D235E, G239D, D298Y, K328A
light: B19 light
notes: as for B20
- KD(IIb) of the parent polypeptide/KD(IIb) of the altered polypeptide [10]: 80.4 fold
- Kd [12]: 5.1 µM
- Kd [13]: 41 µM

B25: IL6R-BP205/IL6R-L (antibody, human IgG1)
heavy: B20 heavy with D270H
light: B19 light
notes: as for B20
- Kd [11]: 26 µM
- Kd [13]: 65 µM

B26: IL6R-BP129/IL6R-L (antibody, human IgG1)
heavy: B20 heavy with D270H, G273P, R332K
light: B19 light
notes: copies: 2 + 2
- Kd [7]: 1.5 µM
- KD (IIaH)/KD (IIb) [8]: 77.5
- KD (IIaR)/KD (IIb) [9]: 29.3
- KD(IIb) of the parent polypeptide/KD(IIb) of the altered polypeptide [14]: 8
